Measured values published in PMC10319729 (Scientific Reports, 2023).

Biological target: T1, LGR4 (HA-LGR4) over-expressed on HEK293 cells (UniProt Q9BXB1 25-951)
T1 construct: Plasmid and cell line described in earlier work; also called HEK293-LGR4; full-length LGR4; source: HEK293 cells over-expressing the receptor (HEK293-LGR4), on cells
Assay: whole-cell binding, fluorescence plate reader; His-tagged ligand in 3x serial dilution on cells in 96-well plates, on ice 1 h, washed, fixed with 4.2% paraformaldehyde, Alexa488-labeled anti-His antibody; half-maximum binding (KD) from a three-parameter dose-response fit
Settings: one partner purified

Kd: 2.2 ± 0.3 nM
B1: R2FuTSP-His (RSPO2 furin domain with TSP domain, His-tagged) (domain or fragment, UniProt Q6UXX9 22-205, looked up)
chain: QGNRWRRSKRASYVSNPICKGCLSCSKDNGCSRCQQKLFFFLRREGMRQYGECLHSCPSGYYGHRAPDMNRCARCRIENCDSCFSKDFCTKCKVGFYLHRGRCFDECPDGFAPLEETMECVEGCEVGHWSEWGTCSRNNRTCGFKWGLETRTRQIVKKPVKDTILCPTIAESRRCKMTMRHCPG
notes: R-spondin 2 (RSPO2), furin domain with the thrombospondin-like (TSP) domain; source: bought: R&D Systems
